Laboratory results published in FireProtDB (doi:10.1021/bi9901228).

B1: Lysozyme C, P61626 (parent)
chain: MKALIVLGLVLLSVTVQGKVFERCELARTLKRLGMDGYRGISLANWMCLAKWESGYNTRATNYNAGDRSTDYGIFQINSRYWCNDGKTPGAVNACHLSCSALLQDNIADAVACAKRVVRDPQGIRAWVAWRNRCQNRDVRQYVQGCGV

Variants of: B1
Settings: Homo sapiens; pH 2.51; Thermal; DSC; glycine 0.05 M; reversible: yes; structure 1LZ1; whole UniProt chain shown

Variant	Tm [°C]	heat capacity change of unfolding [kcal/mol/K]	unfolding enthalpy (calorimetric) [kcal/mol]	unfolding enthalpy (van 't Hoff) [kcal/mol]
MKALIVLGLVLLSVTVQGKVFERCELARTLKRLGMDGYRGISLANWMCLAKWESGYNTRATNYNAGDRSTDYGIFQINSRYWCNDGKTPGAVNACHLSCAALLQDNIADAVACAKRVVRDPQGIRAWVAWRNRCQNRDVRQYVQGCGV	62.5	1.41	111	117
MKALIVLGLVLLSVTVQGKVFERCELARTLKRLGMDGYRGISLANWMCLAKWESGYNTRATNYNAGDRATDYGIFQINSRYWCNDGKTPGAVNACHLSCSALLQDNIADAVACAKRVVRDPQGIRAWVAWRNRCQNRDVRQYVQGCGV	61	1.48	106	113
MKALIVLGLVLLSVTVQGKVFERCELARTLKRLGMDGYRGISLANWMCLAKWESGYNTRATNYNAGDRSTDYGIFQINARYWCNDGKTPGAVNACHLSCSALLQDNIADAVACAKRVVRDPQGIRAWVAWRNRCQNRDVRQYVQGCGV	57	1.1	99	103

Same assay, conditions: Homo sapiens; pH 2.7; Thermal; DSC; glycine 0.05 M; reversible: yes; structure 1LZ1; whole UniProt chain shown

Variant	Tm [°C]	change of melting temperature, mutant - wild type (higher = more stable) [°C]	heat capacity change of unfolding [kcal/mol/K]	unfolding enthalpy (calorimetric) [kcal/mol]
MKALIVLGLVLLSVTVQGKVFERCELARTLKRLGMDGYRGISLANWMCLAKWESGYNTRATNYNAGDRSTDYGIFQINSRYWCNDGKTPGAVNACHLSCAALLQDNIADAVACAKRVVRDPQGIRAWVAWRNRCQNRDVRQYVQGCGV	66	1.1	1.27	114
MKALIVLGLVLLSVTVQGKVFERCELARTLKRLGMDGYRGISLANWMCLAKWESGYNTRATNYNAGDRSTDYGIFQINSRYWCNDGKTPGAVNACHLACSALLQDNIADAVACAKRVVRDPQGIRAWVAWRNRCQNRDVRQYVQGCGV	66.3	1.4	1.43	116
MKALIVLGLVLLSVTVQGKVFERCELARTLKRLGMDGYRGISLANWMCLAKWESGYNTRATNYNAGDRATDYGIFQINSRYWCNDGKTPGAVNACHLSCSALLQDNIADAVACAKRVVRDPQGIRAWVAWRNRCQNRDVRQYVQGCGV	64.2	-0.7	1.43	112
MKALIVLGLVLLSVTVQGKVFERCELARTLKRLGMDGYRGIALANWMCLAKWESGYNTRATNYNAGDRSTDYGIFQINSRYWCNDGKTPGAVNACHLSCSALLQDNIADAVACAKRVVRDPQGIRAWVAWRNRCQNRDVRQYVQGCGV	63.3	-1.6	1.51	110
MKALIVLGLVLLSVTVQGKVFERCELARTLKRLGMDGYRGISLANWMCLAKWESGYNTRATNYNAGDRSTDYGIFQINARYWCNDGKTPGAVNACHLSCSALLQDNIADAVACAKRVVRDPQGIRAWVAWRNRCQNRDVRQYVQGCGV	60.6	-4.3	1.27	109
MKALIVLGLVLLSVTVQGKVFERCELARTLKRLGMDGYRGISLANWMCLAKWEAGYNTRATNYNAGDRSTDYGIFQINSRYWCNDGKTPGAVNACHLSCSALLQDNIADAVACAKRVVRDPQGIRAWVAWRNRCQNRDVRQYVQGCGV	61.4	-3.5	1.31	109

Same assay, conditions: Homo sapiens; pH 2.85; Thermal; DSC; glycine 0.05 M; reversible: yes; structure 1LZ1; whole UniProt chain shown

Variant	Tm [°C]	heat capacity change of unfolding [kcal/mol/K]	unfolding enthalpy (calorimetric) [kcal/mol]	unfolding enthalpy (van 't Hoff) [kcal/mol]
MKALIVLGLVLLSVTVQGKVFERCELARTLKRLGMDGYRGISLANWMCLAKWESGYNTRATNYNAGDRSTDYGIFQINSRYWCNDGKTPGAVNACHLSCAALLQDNIADAVACAKRVVRDPQGIRAWVAWRNRCQNRDVRQYVQGCGV	68.9	1.2	120	128
MKALIVLGLVLLSVTVQGKVFERCELARTLKRLGMDGYRGISLANWMCLAKWESGYNTRATNYNAGDRSTDYGIFQINSRYWCNDGKTPGAVNACHLACSALLQDNIADAVACAKRVVRDPQGIRAWVAWRNRCQNRDVRQYVQGCGV	69.1	1.34	122	129

Same assay, conditions: Homo sapiens; pH 3.12; Thermal; DSC; glycine 0.05 M; reversible: yes; structure 1LZ1; whole UniProt chain shown

Variant	Tm [°C]	heat capacity change of unfolding [kcal/mol/K]	unfolding enthalpy (calorimetric) [kcal/mol]	unfolding enthalpy (van 't Hoff) [kcal/mol]
MKALIVLGLVLLSVTVQGKVFERCELARTLKRLGMDGYRGISLANWMCLAKWESGYNTRATNYNAGDRSTDYGIFQINSRYWCNDGKTPGAVNACHLSCAALLQDNIADAVACAKRVVRDPQGIRAWVAWRNRCQNRDVRQYVQGCGV	73.5	1.41	125	133

Same assay, conditions: Homo sapiens; pH 2.5; Thermal; DSC; glycine 0.05 M; reversible: yes; structure 1LZ1; whole UniProt chain shown

Variant	Tm [°C]	heat capacity change of unfolding [kcal/mol/K]	unfolding enthalpy (calorimetric) [kcal/mol]	unfolding enthalpy (van 't Hoff) [kcal/mol]
MKALIVLGLVLLSVTVQGKVFERCELARTLKRLGMDGYRGISLANWMCLAKWESGYNTRATNYNAGDRSTDYGIFQINSRYWCNDGKTPGAVNACHLACSALLQDNIADAVACAKRVVRDPQGIRAWVAWRNRCQNRDVRQYVQGCGV	62.7	1.41	113	120

Same assay, conditions: Homo sapiens; pH 2.69; Thermal; DSC; glycine 0.05 M; reversible: yes; structure 1LZ1; whole UniProt chain shown

Variant	Tm [°C]	heat capacity change of unfolding [kcal/mol/K]	unfolding enthalpy (calorimetric) [kcal/mol]	unfolding enthalpy (van 't Hoff) [kcal/mol]
MKALIVLGLVLLSVTVQGKVFERCELARTLKRLGMDGYRGISLANWMCLAKWESGYNTRATNYNAGDRSTDYGIFQINSRYWCNDGKTPGAVNACHLACSALLQDNIADAVACAKRVVRDPQGIRAWVAWRNRCQNRDVRQYVQGCGV	66.2	1.34	119	126
MKALIVLGLVLLSVTVQGKVFERCELARTLKRLGMDGYRGISLANWMCLAKWESGYNTRATNYNAGDRATDYGIFQINSRYWCNDGKTPGAVNACHLSCSALLQDNIADAVACAKRVVRDPQGIRAWVAWRNRCQNRDVRQYVQGCGV	64.2	1.43	111	118

Same assay, conditions: Homo sapiens; pH 3.11; Thermal; DSC; glycine 0.05 M; reversible: yes; structure 1LZ1; whole UniProt chain shown

Variant	Tm [°C]	heat capacity change of unfolding [kcal/mol/K]	unfolding enthalpy (calorimetric) [kcal/mol]	unfolding enthalpy (van 't Hoff) [kcal/mol]
MKALIVLGLVLLSVTVQGKVFERCELARTLKRLGMDGYRGISLANWMCLAKWESGYNTRATNYNAGDRSTDYGIFQINSRYWCNDGKTPGAVNACHLACSALLQDNIADAVACAKRVVRDPQGIRAWVAWRNRCQNRDVRQYVQGCGV	73.6	1.39	129	135
MKALIVLGLVLLSVTVQGKVFERCELARTLKRLGMDGYRGISLANWMCLAKWESGYNTRATNYNAGDRATDYGIFQINSRYWCNDGKTPGAVNACHLSCSALLQDNIADAVACAKRVVRDPQGIRAWVAWRNRCQNRDVRQYVQGCGV	70.8	1.36	120	126

Same assay, conditions: Homo sapiens; pH 2.86; Thermal; DSC; glycine 0.05 M; reversible: yes; structure 1LZ1; whole UniProt chain shown

Variant	Tm [°C]	heat capacity change of unfolding [kcal/mol/K]	unfolding enthalpy (calorimetric) [kcal/mol]	unfolding enthalpy (van 't Hoff) [kcal/mol]
MKALIVLGLVLLSVTVQGKVFERCELARTLKRLGMDGYRGISLANWMCLAKWESGYNTRATNYNAGDRATDYGIFQINSRYWCNDGKTPGAVNACHLSCSALLQDNIADAVACAKRVVRDPQGIRAWVAWRNRCQNRDVRQYVQGCGV	66.7	1.55	115	121

Same assay, conditions: Homo sapiens; pH 2.46; Thermal; DSC; glycine 0.05 M; reversible: yes; structure 1LZ1; whole UniProt chain shown

Variant	Tm [°C]	heat capacity change of unfolding [kcal/mol/K]	unfolding enthalpy (calorimetric) [kcal/mol]	unfolding enthalpy (van 't Hoff) [kcal/mol]
MKALIVLGLVLLSVTVQGKVFERCELARTLKRLGMDGYRGIALANWMCLAKWESGYNTRATNYNAGDRSTDYGIFQINSRYWCNDGKTPGAVNACHLSCSALLQDNIADAVACAKRVVRDPQGIRAWVAWRNRCQNRDVRQYVQGCGV	58.8	1.46	101	105

Same assay, conditions: Homo sapiens; pH 2.66; Thermal; DSC; glycine 0.05 M; reversible: yes; structure 1LZ1; whole UniProt chain shown

Variant	Tm [°C]	heat capacity change of unfolding [kcal/mol/K]	unfolding enthalpy (calorimetric) [kcal/mol]	unfolding enthalpy (van 't Hoff) [kcal/mol]
MKALIVLGLVLLSVTVQGKVFERCELARTLKRLGMDGYRGIALANWMCLAKWESGYNTRATNYNAGDRSTDYGIFQINSRYWCNDGKTPGAVNACHLSCSALLQDNIADAVACAKRVVRDPQGIRAWVAWRNRCQNRDVRQYVQGCGV	62.5	1.67	106	111

Same assay, conditions: Homo sapiens; pH 2.82; Thermal; DSC; glycine 0.05 M; reversible: yes; structure 1LZ1; whole UniProt chain shown

Variant	Tm [°C]	heat capacity change of unfolding [kcal/mol/K]	unfolding enthalpy (calorimetric) [kcal/mol]	unfolding enthalpy (van 't Hoff) [kcal/mol]
MKALIVLGLVLLSVTVQGKVFERCELARTLKRLGMDGYRGIALANWMCLAKWESGYNTRATNYNAGDRSTDYGIFQINSRYWCNDGKTPGAVNACHLSCSALLQDNIADAVACAKRVVRDPQGIRAWVAWRNRCQNRDVRQYVQGCGV	65.7	1.55	112	117

Same assay, conditions: Homo sapiens; pH 3.09; Thermal; DSC; glycine 0.05 M; reversible: yes; structure 1LZ1; whole UniProt chain shown

Variant	Tm [°C]	heat capacity change of unfolding [kcal/mol/K]	unfolding enthalpy (calorimetric) [kcal/mol]	unfolding enthalpy (van 't Hoff) [kcal/mol]
MKALIVLGLVLLSVTVQGKVFERCELARTLKRLGMDGYRGIALANWMCLAKWESGYNTRATNYNAGDRSTDYGIFQINSRYWCNDGKTPGAVNACHLSCSALLQDNIADAVACAKRVVRDPQGIRAWVAWRNRCQNRDVRQYVQGCGV	70.3	1.41	118	123
MKALIVLGLVLLSVTVQGKVFERCELARTLKRLGMDGYRGISLANWMCLAKWEAGYNTRATNYNAGDRSTDYGIFQINSRYWCNDGKTPGAVNACHLSCSALLQDNIADAVACAKRVVRDPQGIRAWVAWRNRCQNRDVRQYVQGCGV	68.7	1.22	114	119

Same assay, conditions: Homo sapiens; pH 2.84; Thermal; DSC; glycine 0.05 M; reversible: yes; structure 1LZ1; whole UniProt chain shown

Variant	Tm [°C]	heat capacity change of unfolding [kcal/mol/K]	unfolding enthalpy (calorimetric) [kcal/mol]	unfolding enthalpy (van 't Hoff) [kcal/mol]
MKALIVLGLVLLSVTVQGKVFERCELARTLKRLGMDGYRGISLANWMCLAKWESGYNTRATNYNAGDRSTDYGIFQINARYWCNDGKTPGAVNACHLSCSALLQDNIADAVACAKRVVRDPQGIRAWVAWRNRCQNRDVRQYVQGCGV	63.6	1.15	107	111
MKALIVLGLVLLSVTVQGKVFERCELARTLKRLGMDGYRGISLANWMCLAKWEAGYNTRATNYNAGDRSTDYGIFQINSRYWCNDGKTPGAVNACHLSCSALLQDNIADAVACAKRVVRDPQGIRAWVAWRNRCQNRDVRQYVQGCGV	64	1.24	107	113

Same assay, conditions: Homo sapiens; pH 3.1; Thermal; DSC; glycine 0.05 M; reversible: yes; structure 1LZ1; whole UniProt chain shown

Variant	Tm [°C]	heat capacity change of unfolding [kcal/mol/K]	unfolding enthalpy (calorimetric) [kcal/mol]	unfolding enthalpy (van 't Hoff) [kcal/mol]
MKALIVLGLVLLSVTVQGKVFERCELARTLKRLGMDGYRGISLANWMCLAKWESGYNTRATNYNAGDRSTDYGIFQINARYWCNDGKTPGAVNACHLSCSALLQDNIADAVACAKRVVRDPQGIRAWVAWRNRCQNRDVRQYVQGCGV	68.3	1.31	113	118

Same assay, conditions: Homo sapiens; pH 2.47; Thermal; DSC; glycine 0.05 M; reversible: yes; structure 1LZ1; whole UniProt chain shown

Variant	Tm [°C]	heat capacity change of unfolding [kcal/mol/K]	unfolding enthalpy (calorimetric) [kcal/mol]	unfolding enthalpy (van 't Hoff) [kcal/mol]
MKALIVLGLVLLSVTVQGKVFERCELARTLKRLGMDGYRGISLANWMCLAKWEAGYNTRATNYNAGDRSTDYGIFQINSRYWCNDGKTPGAVNACHLSCSALLQDNIADAVACAKRVVRDPQGIRAWVAWRNRCQNRDVRQYVQGCGV	57.1	1.31	98.5	103

Same assay, conditions: Homo sapiens; pH 2.67; Thermal; DSC; glycine 0.05 M; reversible: yes; structure 1LZ1; whole UniProt chain shown

Variant	Tm [°C]	heat capacity change of unfolding [kcal/mol/K]	unfolding enthalpy (calorimetric) [kcal/mol]	unfolding enthalpy (van 't Hoff) [kcal/mol]
MKALIVLGLVLLSVTVQGKVFERCELARTLKRLGMDGYRGISLANWMCLAKWEAGYNTRATNYNAGDRSTDYGIFQINSRYWCNDGKTPGAVNACHLSCSALLQDNIADAVACAKRVVRDPQGIRAWVAWRNRCQNRDVRQYVQGCGV	60.8	1.31	104	109
